In patent US20210130436A1:
One block for each binder: values may come before it.

Legend:
[1] = biological target: T1, CD96 (UniProt P40200); test: flow cytometry, MFI ratio to WT CD155 ECD-Fc, CD96-transfected cells
T1 sequence (looked up): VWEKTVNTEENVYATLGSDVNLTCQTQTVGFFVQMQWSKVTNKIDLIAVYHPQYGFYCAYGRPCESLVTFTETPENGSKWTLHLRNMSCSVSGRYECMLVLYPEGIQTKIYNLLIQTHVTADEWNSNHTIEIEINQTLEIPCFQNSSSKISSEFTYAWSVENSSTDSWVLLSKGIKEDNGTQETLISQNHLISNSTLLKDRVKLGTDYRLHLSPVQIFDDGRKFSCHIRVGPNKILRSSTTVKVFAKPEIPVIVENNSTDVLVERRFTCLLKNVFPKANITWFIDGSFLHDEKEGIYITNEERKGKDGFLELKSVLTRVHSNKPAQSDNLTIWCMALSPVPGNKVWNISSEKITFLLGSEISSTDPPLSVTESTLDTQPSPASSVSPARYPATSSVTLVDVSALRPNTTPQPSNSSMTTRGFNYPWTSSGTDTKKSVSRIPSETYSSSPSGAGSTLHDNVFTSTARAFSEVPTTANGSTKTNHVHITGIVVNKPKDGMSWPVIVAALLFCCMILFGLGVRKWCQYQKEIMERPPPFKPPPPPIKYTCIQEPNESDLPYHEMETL

[2] = biological target: T1, CD96; test: flow cytometry, Fc fusion at 100 nM, CD96-transfected cells
[3] = biological target: T2, CD226 (Homo sapiens (Human)) (UniProt Q15762); test: flow cytometry on CD226-expressing cells, Fc fusion at 100 nM
T2 sequence: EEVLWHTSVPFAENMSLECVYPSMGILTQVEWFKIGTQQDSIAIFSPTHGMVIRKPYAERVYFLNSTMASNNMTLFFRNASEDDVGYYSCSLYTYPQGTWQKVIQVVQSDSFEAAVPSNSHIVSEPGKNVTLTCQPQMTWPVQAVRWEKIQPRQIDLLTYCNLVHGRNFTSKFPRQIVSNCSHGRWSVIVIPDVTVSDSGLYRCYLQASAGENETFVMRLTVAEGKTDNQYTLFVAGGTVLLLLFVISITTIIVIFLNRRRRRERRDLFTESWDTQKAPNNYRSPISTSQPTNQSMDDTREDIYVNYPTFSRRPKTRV

[4] = biological target: human PD-L1, full length, expressed on transfected HEK293 cells (human) (UniProt Q9NZQ7); test: flow cytometry, HEK293 cells transfected with human PD-L1
[5] = biological target: PD-1 (PDCD1) (Homo sapiens (Human)) (UniProt Q15116); test: cell-based or functional assay
[6] = biological target: T3, CD112R, Q6DKI7; test: flow cytometry, cells expressing CD112R, 20 nM; conditions: remark: other sources report otherwise
T3 chain: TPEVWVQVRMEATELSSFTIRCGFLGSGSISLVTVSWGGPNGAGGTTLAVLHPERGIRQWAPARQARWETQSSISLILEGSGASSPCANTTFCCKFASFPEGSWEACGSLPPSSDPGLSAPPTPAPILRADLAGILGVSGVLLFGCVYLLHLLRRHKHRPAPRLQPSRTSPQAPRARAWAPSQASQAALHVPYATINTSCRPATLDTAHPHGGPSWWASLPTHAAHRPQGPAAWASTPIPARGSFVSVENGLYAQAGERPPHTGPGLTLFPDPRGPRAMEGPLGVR

Chain of PD-1 (PDCD1) (Homo sapiens (Human)) (Q15116 21-288): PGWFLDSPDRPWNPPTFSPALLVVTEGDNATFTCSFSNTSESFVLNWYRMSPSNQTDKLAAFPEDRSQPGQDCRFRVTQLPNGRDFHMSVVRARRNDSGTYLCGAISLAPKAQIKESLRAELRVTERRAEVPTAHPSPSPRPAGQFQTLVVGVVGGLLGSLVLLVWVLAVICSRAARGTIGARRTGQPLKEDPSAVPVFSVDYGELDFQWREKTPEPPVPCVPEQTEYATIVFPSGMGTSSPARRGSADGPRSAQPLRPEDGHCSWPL
Chain of human PD-L1, full length, expressed on transfected HEK293 cells (human) (Q9NZQ7 19-290): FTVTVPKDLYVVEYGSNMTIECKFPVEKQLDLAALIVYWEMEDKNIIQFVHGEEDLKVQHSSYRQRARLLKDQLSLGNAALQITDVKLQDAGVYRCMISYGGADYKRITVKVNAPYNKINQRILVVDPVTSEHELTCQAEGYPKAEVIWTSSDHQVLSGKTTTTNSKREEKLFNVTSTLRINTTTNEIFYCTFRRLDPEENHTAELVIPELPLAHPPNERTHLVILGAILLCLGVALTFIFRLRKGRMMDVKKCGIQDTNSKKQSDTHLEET

Fold ↑ to WT ECD [1]: 0.03 fold
MFI at 100 nM [2]: 3320 MFI
B1: variant CD155 IgV-Fc G111R (Fc fusion, not shown: a dimerising Fc or GST)
chain: WPPPGTGDVVVQAPTQVPGFLGDSVTLPCYLQVPNMEVTHVSQLTWARHGESGSMAVFHQTQGPSYSESKRLEFVAARLGAELRNASLRMFGLRVEDEGNYTCLFVTFPQRSRSVDIWLRVL

MFI at 100 nM [3]: 2110 MFI
B2: CD155 P18S/T45S/T61K/S65W/S67A/F91S/G111R IgV-Fc (Fc fusion, not shown: a dimerising Fc or GST)
chain: WPPPGTGDVVVQAPTQVSGFLGDSVTLPCYLQVPNMEVTHVSQLSWARHGESGSMAVFHQKQGPWYAESKRLEFVAARLGAELRNASLRMSGLRVEDEGNYTCLFVTFPQRSRSVDIWLRVL

MFI at 22.2 nM [4]: 1220 MFI
B3: variant CD80 IgV-Fc A12T/E24D/E35D/D46V/I61V/L72P/E95V (Fc fusion, not shown: a dimerising Fc or GST)
chain: VIHVTKEVKEVTTLSCGHNVSVEDLAQTRIYWQKDKKMVLTMMSGVMNIWPEYKNRTIFDVTNNLSIVILAPRPSDEGTYECVVLKYEKDAFKRVHLAEVTLSVKAD

Fold increase over wildtype PD-L2 IgV-Fc (IFN gamma, MLR) [5]: 1.13 fold
IFN gamma levels pg/mL (MLR) [5]: 1560 pg/mL
B4: PD-L2 I13V/H15Q/T47A/S67L/Q72H/R76G/Q82R/V89D IgV-Fc (Fc fusion, not shown: a dimerising Fc or GST)
chain: SEQLFTVTVPKELYIVEQGSNVTLECNFDTGSHVNLGAITASLQKVENDASPHRERATLLEEQLPLGKALFHIPHVQVGDEGQYRCIIIYGDAWDYKYLTLKVKA

Fold Increase to WT IgV [6]: 0.75 fold
MFI at 20 nM [6]: 1250
B5: WT CD112-Fc ECD, Q92692 32-360 (Fc fusion, not shown: a dimerising Fc or GST)
chain: QDVRVQVLPEVRGQLGGTVELPCHLLPPVPGLYISLVTWQRPDAPANHQNVAAFHPKMGPSFPSPKPGSERLSFVSAKQSTGQDTEAELQDATLALHGLTVEDEGNYTCEFATFPKGSVRGMTWLRVIAKPKNQAEAQKVTFSQDPTTVALCISKEGRPPARISWLSSLDWEAKETQVSGTLAGTVTVTSRFTLVPSGRADGVTVTCKVEHESFEEPALIPVTLSVRYPPEVSISGYDDNWYLGRTDATLSCDVRSNPEPTGYDWSTTSGTFPTSAVAQGSQLVIHAVDSLFNTTFVCTVTNAVGMGRAEQVIFVRETPNTAGAGATGG
